According to PMC5467213, “Architecture of the RNA polymerase II-Paf1C-TFIIS transcription elongation complex” (Nature Communications, 2017):

B1: Leo1 (natural protein, S. cerevisiae, UniProt P38439 1-464, looked up)
chain: MSSESPQDQPQKEQISNNVGVTTNSTSNEETSRSQDDNVKEVNGNDDTKEEEQEEDAELDDLFGDDNDDDDDDDVKKSETEKSDSDSDEDDEGENINHRSRHRESLGLDDDEAEEQAMYTRKFYGEDANNFSDQDETTHTFKEENVELVRHIIPSKANVNETASHNEIFYARIPNFLTIDPIPFDPPSFEAKVNERASNSASREDQLDDRLIDENTVRWRYSRDKDQHVFKESNTQIVQWSDGTYSLKVGEECTDILVNDTSNTFLTVSHDQQELIQCYEGGEIKKTLMFIPTSTNSKIHQKLSKAVIRRNQRQSKGPGTYIVSMDPEVEKKELERKQSQILRDRRRRQLKEKEKQESPDAAFETGFRKQNSPTTYGASRRNEYEEDDFLVDDDEEEEAAFDDEEDDNEEEEEEEDADEENASRLRNLKREGAAMYREEEEEEKDRSETKRRRVAVIEDDEDED
notes: Leo1, S. cerevisiae, open reading frame chemically synthesized (codon-optimised), in pCDFDuet-1; source: E. coli BL21 CodonPlus(DE3)RIL, coexpressed with the other subunits; in lysate and purified as part of Paf1C
B2: Rpb11 (Pol II subunit) (natural protein, yeast)
chain: MNAPDRFELFLLGEGESKLKIDPDTKAPNAVVITFEKEDHTLGNLIRAELLNDRKVLFAAYKVEHPFFARFKLRIQTTEGYDPKDALKNACNSIINKLGALKTNFETEWNLQTLAADDAF
notes: Rpb11, subunit of yeast Pol II; source: part of purified Pol II
B3: Cdc73 (natural protein, S. cerevisiae, UniProt Q06697 1-393, looked up)
chain: MANSLDRLREHLKNGDKLVLKNNEGQSTDDITKATMVETLSSDGSTQDSFPLNEETEIEIDGSLVQLRIIVHCWMNKDSSAADYLADCQNKQLTNVSFLQRTDLINWLSGNTESSQYLKAPGQKGETSDKVDIENKTLAGELSTVKSTTSASLENDSEVSDPVVVETMKHERILVDHNSALRGAKPINFGYLIKDAELKLVQSIKGSLRGSKLPPGHKGAHGRISKTNGSSGGPRKDPIILIPSAASSILTVANIKQFLLESKYVNPRNLPSVPNGLVNIEKNFERISRPIRFIIVDNTRMFTKPEYWDRVVAIFTTGHTWQFNNYQWNSPQELFQRCKGYYFHFAGDSVPQHVQQWNVEKVELDKNKRFKDVEVVRYFWHSLEKELISRGYR
notes: Cdc73, S. cerevisiae, full length, amplified from genomic DNA; source: E. coli BL21 CodonPlus(DE3)RIL, coexpressed with the other subunits; in lysate and purified as part of Paf1C
B4: Rpb3 (Pol II subunit) (natural protein, yeast)
chain: MSEEGPQVKIREASKDNVDFILSNVDLAMANSLRRVMIAEIPTLAIDSVEVETNTTVLADEFIAHRLGLIPLQSMDIEQLEYSRDCFCEDHCDKCSVVLTLQAFGESESTTNVYSKDLVIVSNLMGRNIGHPIIQDKEGNGVLICKLRKGQELKLTCVAKKGIAKEHAKWGPAAAIEFEYDPWNKLKHTDYWYEQDSAKEWPQSKNCEYEDPPNEGDPFDYKAQADTFYMNVESVGSIPVDQVVVRGIDTLQKKVASILLALTQMDQDKVNFASGDNNTASNMLGSNEDVMMTGAEQDPYSNASQMGNTGSGGYDNAW
notes: Rpb3, subunit of yeast Pol II; source: part of purified Pol II

What was measured:
[1] = molecular target: T1, Rpb1 (Pol II subunit) (yeast, UniProt P04050 1-1733); assay: cross-linking; Pol II-Paf1C-TFIIS EC after SEC, 425 μg/ml, 0.5 mM BS3, 30 min, 30 °C; trypsin, Orbitrap Fusion LC-MS/MS, pLink, FDR 1%; details: both partners purified
T1 construct: Rpb1, largest subunit of yeast Pol II; source: part of purified Pol II

[2] = molecular target: T2, Ctr9-ΔC913 (S. cerevisiae, UniProt P89105 1-913); assay: as above; details: both partners purified
T2 construct: Ctr9, S. cerevisiae, variant lacking 164 amino acids at its C terminus (Ctr9-ΔC913); also called Ctr9 (in the Pol II-Paf1C-TFIIS EC); source: E. coli BL21 CodonPlus(DE3)RIL, coexpressed with the other subunits; in lysate and purified as part of Paf1C-Ctr9-ΔC913
T2 sequence (looked up): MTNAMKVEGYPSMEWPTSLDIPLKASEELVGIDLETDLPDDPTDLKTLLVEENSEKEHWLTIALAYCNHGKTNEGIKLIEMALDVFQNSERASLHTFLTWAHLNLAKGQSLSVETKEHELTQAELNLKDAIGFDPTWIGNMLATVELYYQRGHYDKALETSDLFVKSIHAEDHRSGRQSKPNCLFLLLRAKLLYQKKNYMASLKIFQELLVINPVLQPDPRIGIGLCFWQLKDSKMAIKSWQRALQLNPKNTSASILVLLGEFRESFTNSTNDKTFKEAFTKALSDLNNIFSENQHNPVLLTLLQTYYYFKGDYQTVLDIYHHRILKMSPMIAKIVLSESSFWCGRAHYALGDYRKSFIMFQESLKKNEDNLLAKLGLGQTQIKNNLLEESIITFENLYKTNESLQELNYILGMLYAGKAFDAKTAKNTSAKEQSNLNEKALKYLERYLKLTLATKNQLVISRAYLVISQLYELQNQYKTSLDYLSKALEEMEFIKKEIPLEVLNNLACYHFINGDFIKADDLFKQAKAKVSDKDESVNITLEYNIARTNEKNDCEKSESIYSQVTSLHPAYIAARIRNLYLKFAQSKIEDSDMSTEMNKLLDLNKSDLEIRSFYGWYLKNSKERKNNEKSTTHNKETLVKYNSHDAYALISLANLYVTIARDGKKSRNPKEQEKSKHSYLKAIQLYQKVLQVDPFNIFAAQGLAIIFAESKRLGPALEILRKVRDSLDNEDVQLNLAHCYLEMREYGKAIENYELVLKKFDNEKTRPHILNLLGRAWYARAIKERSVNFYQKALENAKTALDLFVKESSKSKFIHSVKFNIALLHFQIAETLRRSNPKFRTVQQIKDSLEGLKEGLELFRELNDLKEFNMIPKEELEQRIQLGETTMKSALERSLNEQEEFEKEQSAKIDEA

[3] = molecular target: T3, Rtf1 (S. cerevisiae, UniProt P53064 1-558); assay: as above; details: both partners purified
T3 construct: Rtf1, S. cerevisiae, full length, amplified from genomic DNA; source: E. coli BL21 CodonPlus(DE3)RIL, coexpressed with Cdc73; in lysate and purified as part of Paf1C

[4] = molecular target: T4, Rpb2 (Pol II subunit) (yeast, UniProt P08518 1-1224); assay: as above; details: both partners purified
T4 construct: Rpb2, subunit of yeast Pol II; source: part of purified Pol II

[5] = molecular target: T5, Ctr9 (full length, C-terminal hexahistidine tag) (S. cerevisiae, UniProt P89105 1-1077); assay: co-purification after coexpression (Ni-NTA, cation exchange, SEC); subunits coexpressed in E. coli from three vectors, cells colysed; Ni-NTA (hexahistidine tag on Ctr9), HiTrap SP cation exchange, Superose 6 size exclusion; SDS-PAGE, subunits confirmed by mass spectrometry; details: partners not purified
T5 construct: Ctr9, S. cerevisiae, full length, amplified from genomic DNA, in pET24b; source: E. coli BL21 CodonPlus(DE3)RIL, coexpressed with the other subunits; in lysate and purified as part of Paf1C; not shown: His6, C-terminal, kept
T5 sequence (looked up): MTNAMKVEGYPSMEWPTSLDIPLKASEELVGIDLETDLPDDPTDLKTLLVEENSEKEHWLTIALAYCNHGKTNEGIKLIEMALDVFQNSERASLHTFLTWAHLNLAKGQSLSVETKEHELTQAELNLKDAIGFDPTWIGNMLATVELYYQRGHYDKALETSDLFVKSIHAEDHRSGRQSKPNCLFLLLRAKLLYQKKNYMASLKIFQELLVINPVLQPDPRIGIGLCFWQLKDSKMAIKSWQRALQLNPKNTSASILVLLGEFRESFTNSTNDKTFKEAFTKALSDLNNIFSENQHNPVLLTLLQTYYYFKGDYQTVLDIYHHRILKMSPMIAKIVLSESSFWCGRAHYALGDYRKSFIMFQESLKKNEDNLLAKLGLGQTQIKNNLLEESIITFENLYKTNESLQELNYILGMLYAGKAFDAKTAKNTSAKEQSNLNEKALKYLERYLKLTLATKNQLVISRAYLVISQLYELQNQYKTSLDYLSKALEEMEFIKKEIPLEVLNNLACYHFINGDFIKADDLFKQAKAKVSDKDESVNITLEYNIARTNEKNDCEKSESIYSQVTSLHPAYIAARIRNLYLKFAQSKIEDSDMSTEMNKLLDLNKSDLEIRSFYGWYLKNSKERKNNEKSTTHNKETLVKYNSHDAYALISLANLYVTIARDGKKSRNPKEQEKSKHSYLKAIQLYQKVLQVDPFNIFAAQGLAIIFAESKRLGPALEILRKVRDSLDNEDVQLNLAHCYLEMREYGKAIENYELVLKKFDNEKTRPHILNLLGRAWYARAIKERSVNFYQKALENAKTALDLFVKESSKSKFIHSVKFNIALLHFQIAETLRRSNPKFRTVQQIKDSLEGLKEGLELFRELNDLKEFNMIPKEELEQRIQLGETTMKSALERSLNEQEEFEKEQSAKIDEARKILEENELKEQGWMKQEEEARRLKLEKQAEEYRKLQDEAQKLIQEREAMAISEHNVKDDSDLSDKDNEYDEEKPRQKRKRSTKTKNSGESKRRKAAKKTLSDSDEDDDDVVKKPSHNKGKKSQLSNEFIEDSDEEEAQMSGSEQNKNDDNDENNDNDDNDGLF

[6] = molecular target: B3; assay: cross-linking; Pol II-Paf1C-TFIIS EC after SEC, 425 μg/ml, 0.5 mM BS3, 30 min, 30 °C; trypsin, Orbitrap Fusion LC-MS/MS, pLink, FDR 1%; details: both partners purified

T4 sequence (P08518 whole entry): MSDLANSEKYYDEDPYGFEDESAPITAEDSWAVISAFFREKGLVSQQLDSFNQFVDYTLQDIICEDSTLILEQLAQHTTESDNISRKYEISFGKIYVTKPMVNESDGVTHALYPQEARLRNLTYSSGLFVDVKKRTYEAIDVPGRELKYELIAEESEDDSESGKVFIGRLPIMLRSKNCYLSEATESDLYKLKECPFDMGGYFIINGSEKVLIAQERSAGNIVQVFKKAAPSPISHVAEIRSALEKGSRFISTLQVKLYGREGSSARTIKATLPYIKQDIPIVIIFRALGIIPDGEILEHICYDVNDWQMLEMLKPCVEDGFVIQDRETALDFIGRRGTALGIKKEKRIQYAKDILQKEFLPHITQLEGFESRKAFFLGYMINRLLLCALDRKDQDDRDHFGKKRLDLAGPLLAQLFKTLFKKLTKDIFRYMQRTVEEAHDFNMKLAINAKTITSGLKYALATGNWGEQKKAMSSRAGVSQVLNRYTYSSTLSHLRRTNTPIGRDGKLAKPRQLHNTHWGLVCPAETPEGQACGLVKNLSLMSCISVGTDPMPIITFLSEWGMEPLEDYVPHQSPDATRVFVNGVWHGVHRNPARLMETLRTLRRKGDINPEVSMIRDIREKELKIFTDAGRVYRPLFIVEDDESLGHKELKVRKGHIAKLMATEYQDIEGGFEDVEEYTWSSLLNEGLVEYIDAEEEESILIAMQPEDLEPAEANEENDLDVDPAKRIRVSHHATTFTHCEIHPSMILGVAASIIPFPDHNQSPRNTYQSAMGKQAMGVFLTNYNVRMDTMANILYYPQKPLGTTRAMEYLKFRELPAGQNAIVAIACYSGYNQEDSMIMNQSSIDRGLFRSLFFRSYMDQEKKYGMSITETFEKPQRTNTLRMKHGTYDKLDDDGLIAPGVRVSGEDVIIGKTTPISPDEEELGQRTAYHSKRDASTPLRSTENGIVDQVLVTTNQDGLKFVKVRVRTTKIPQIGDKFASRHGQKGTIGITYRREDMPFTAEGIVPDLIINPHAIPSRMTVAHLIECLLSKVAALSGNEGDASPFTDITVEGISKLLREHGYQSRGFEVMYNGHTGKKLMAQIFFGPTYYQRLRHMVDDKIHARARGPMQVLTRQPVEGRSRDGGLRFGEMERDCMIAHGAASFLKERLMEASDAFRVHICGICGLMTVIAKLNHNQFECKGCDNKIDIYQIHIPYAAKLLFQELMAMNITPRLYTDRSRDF
T3 sequence (P53064 whole entry): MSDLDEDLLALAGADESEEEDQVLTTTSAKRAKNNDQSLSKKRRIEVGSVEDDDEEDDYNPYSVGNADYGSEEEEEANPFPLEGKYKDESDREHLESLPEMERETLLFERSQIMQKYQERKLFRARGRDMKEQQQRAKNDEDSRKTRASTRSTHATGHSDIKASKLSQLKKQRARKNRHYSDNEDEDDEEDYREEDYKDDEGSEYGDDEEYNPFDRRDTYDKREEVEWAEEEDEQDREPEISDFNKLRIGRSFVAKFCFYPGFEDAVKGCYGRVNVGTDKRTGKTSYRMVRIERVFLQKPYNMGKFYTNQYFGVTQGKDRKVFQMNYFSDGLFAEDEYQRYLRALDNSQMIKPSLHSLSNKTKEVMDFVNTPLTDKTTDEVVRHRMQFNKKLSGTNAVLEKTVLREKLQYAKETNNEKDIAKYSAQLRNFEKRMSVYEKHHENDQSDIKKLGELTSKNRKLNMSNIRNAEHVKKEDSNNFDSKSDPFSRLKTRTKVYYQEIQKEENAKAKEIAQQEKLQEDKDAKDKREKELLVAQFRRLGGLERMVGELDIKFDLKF
T1 sequence (P04050 whole entry, the tested form may be a part): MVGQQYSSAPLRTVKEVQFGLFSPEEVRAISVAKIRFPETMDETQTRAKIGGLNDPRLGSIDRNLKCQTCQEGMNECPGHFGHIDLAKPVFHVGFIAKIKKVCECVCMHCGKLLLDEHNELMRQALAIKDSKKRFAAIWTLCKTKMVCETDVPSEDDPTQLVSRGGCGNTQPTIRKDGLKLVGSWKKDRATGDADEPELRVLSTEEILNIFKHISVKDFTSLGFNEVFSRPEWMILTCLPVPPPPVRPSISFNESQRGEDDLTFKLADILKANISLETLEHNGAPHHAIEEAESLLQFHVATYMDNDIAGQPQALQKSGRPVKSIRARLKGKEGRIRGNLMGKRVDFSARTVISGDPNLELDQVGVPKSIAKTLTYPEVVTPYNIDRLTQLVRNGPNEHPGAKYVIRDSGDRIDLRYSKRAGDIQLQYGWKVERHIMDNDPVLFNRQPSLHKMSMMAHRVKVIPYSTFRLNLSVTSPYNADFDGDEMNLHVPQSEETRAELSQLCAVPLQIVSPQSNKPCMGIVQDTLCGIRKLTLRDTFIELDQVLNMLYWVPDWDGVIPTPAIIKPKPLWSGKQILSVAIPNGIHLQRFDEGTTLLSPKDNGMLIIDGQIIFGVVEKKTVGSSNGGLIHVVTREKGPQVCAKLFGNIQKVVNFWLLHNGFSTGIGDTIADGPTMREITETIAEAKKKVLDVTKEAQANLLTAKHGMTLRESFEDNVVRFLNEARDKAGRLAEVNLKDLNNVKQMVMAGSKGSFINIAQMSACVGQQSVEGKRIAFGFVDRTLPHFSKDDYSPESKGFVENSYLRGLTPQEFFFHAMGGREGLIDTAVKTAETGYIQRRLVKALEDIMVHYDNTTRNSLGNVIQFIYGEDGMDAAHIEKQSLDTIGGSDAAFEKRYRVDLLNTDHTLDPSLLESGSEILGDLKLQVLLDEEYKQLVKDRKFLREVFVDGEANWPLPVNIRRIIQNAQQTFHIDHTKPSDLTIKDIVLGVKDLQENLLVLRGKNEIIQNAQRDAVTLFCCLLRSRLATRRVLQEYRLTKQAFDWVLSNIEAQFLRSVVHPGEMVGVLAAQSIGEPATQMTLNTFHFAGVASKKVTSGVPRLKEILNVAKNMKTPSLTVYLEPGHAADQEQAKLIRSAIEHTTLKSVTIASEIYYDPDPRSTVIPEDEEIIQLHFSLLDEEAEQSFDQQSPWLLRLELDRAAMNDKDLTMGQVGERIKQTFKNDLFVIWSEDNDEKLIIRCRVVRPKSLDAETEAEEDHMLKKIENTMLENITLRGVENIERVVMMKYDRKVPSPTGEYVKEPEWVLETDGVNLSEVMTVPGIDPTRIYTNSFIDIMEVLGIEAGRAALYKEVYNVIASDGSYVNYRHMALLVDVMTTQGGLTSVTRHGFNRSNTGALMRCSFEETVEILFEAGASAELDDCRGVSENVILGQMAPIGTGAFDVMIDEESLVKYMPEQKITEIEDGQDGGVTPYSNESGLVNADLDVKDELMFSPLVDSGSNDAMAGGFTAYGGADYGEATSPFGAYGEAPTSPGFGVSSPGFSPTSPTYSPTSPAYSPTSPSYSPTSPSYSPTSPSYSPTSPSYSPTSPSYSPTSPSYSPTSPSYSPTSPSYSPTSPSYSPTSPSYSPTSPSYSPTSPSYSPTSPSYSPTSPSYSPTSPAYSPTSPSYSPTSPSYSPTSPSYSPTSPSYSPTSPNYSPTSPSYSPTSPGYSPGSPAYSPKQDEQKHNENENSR

B1: binds [1]; binds [2]; binds [3]. B1: binds [4]; binds [5].

B2: binds [6].

B3: binds [2]; binds [4]; binds [5].

B4: binds [6].
